Results reported in article PMC8449060, “A fully reversible 25-hydroxy steroid kinase involved in oxygen-independent cholesterol side-chain oxidation” (The Journal of Biological Chemistry, 2021).

Legend:
Assay in all cases: purified protein
[1] = tested on: C[C@H](CCCC(C)(C)OP(=O)(O)O)[C@H]1CC[C@H]2[C@@H]3CCC4=CC(=O)C=C[C@]4(C)[C@H]3CC[C@]12C; details: reverse direction, 5 mM ADP, 10 mM MgCl2, 9% (w/v) HPCD, 50 mM Tris/HCl pH 7.8, 30 °C, apparent, tested only up to 4 mM, no saturation
[2] = tested on: Nc1ncnc2c1ncn2[C@@H]1O[C@H](COP(=O)(O)OP(=O)(O)O)[C@@H](O)[C@H]1O; details: reverse direction, 1 mM 25-phospho-CDO, 10 mM MgCl2, 9% (w/v) HPCD, 50 mM Tris/HCl pH 7.8, 30 °C
[3] = tested on: Nc1ncnc2c1ncn2[C@@H]1O[C@H](COP(=O)(O)OP(=O)(O)OP(=O)(O)O)[C@@H](O)[C@H]1O; details: forward direction, 1 mM 25-OH-CDO, 10 mM MgCl2, 9% (w/v) HPCD, 50 mM Tris/HCl pH 7.8, 30 °C
[4] = tested on: C[C@H](CCCC(C)(C)O)[C@H]1CC[C@H]2[C@@H]3CCC4=CC(=O)C=C[C@]4(C)[C@H]3CC[C@]12C; details: forward direction, 5 mM ATP, 10 mM MgCl2, 9% (w/v) HPCD, 50 mM Tris/HCl pH 7.8, 30 °C

Substance: 25-HSK (25-hydroxy-steroid kinase) (Sterolibacterium denitrificans)
- Km [1]: 8000 ± 700 µM
- Km [2]: 35 ± 3 µM
- Km [3]: 800 ± 50 µM
- Km [4]: 300 ± 10 µM
